Values of other authors as cited in publication PMC4986992.

Target: Glycophorin A (GpATM) TM (Homo sapiens) (UniProt P02724)

Kd: 1.2 pM
Substance: Glycophorin A (GpATM) TM (from UniProt P02724)
